Test: label from the status in PepcDB records
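Note: failed if final PepcDB status was selected cloned or expressed and not failed if soluble or beyond.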

For “MNSNVNDRKPRLVFFQWDHQPNANAAGYLLLHMQQQVKCLSTHFDVVVINRDCDYAEICDRYEPDLTLFESGYRSHGSRRIKITNTNTHIAVPKLGLHNADAWCDRRAGFLSDMEQWGIEAYFAIATMTPEYMPAVKENLFVWPNFIDPDVYHDYGQQKVIPAMLTGQAYGLYPWRQTVFPMIRDRYPCLVSPQHAYESKLASQLLSGEAYARALNASLVVPTCGTMGGEVVRKHFEIPGAKACLVTERTPAVEAAGFVDMENCVFVDGHNVVERLDYLFAHPDEIRHITTAGYSLIHSRHTLSHRPQIYQWFMLSKGLQFGEKIIQSGPFGDLTKVQRISRQESVHIVGEASDRALLKQGDLLLEQGRVEEAKQCYARCLDYVSYLPEAKFRLAICALQQGDADRAYGLMVGLVKVTMTEYEALNPDPVEWAYFLLALICRGQFERARRLQDFYPSLSHDEFRRARLVIALLGGSGDAAVSGRYGRDRKSIHQIPDRSDSEWLAWFSDILERCQQPDLANVLRHAPVGRSGVGEKVTFLHFKRDAGWRLRLYSGVDGLMVGLHLNGLRPNVPPLPEFRYFSHLARRLVPHSQRGPLRRIRTALSRLPVGTGN”, the protein production was “failed”.
With “MSLAWLISEFASVGDVTVRALRYYDKINLLKPSDYTEGGHRLYTKDDLYVLQQIQSFKHLGFSLGEIQNIILQRDIETEVFLRQMHFQREVLLAEQERIAKVLSHMDEMTKKFQKEERVNVALFSSFLQTFIWEKENKEGHHHHHH” the protein production was “not failed”.
For “MDSTGASQIVSALDVIYSPKSNNSQRQEAQKFLDEVKLCSESPFWGYEIALQNPTNSILKYFGLGLLDHAVKKNWNDYDEGKRVALRKWVMELNFGVQDYDTRYIKEKLATLWVEVAKRTWGEALKQTNPTEEQLLTSWVDMDNNLFELWNINQSSRELALIIFRILFEDVFLLDDLIVLKRMTVIQPLCVMIVCPIEVFAIKYKFSDKWTKFKANEEGWFSVWIPELNNALQQNNSEYIIRLLETLKTCLNWPLTEVIVRNDVLSSLLTCLSSNIPRAQSMALDSIHILLTRPYSNESHYQMTIDRVFDNMDLLDSVYESLLFDPTDDIDETKYPIIKKFVDMISCLYVCVPKIKETNGQIQKYFKLVLKTTYNPSLIVSGLTLDLWCTCLRNDEYLPKLEKYVIPDLLQFAADALVYYEQIDGHISKKFAEIDFQSKSEFQTFCSTYRKRIRDIIRLISCVELDLTYDWLNNRLNNYFSSPFGQQVLSSTFLDHKLEPYLGALSQYMIVECFINGCIRWKIWYPTGDDYDEKLDSILQKLEILSNQLIALNLREPLLLKKQIQNFALFLTMLKDNVLFTLLEKIITSATMDYPEINLEERGAESDAVRDLRYACGIELNRMALLMPESLKKIYPDLESVIARIMPNLSYHEKISFKSFLLIIVLKSSLDMKEERFAAIVDPELLAWSDKTTVVGLSDLHWFMERLGIVQIAEYFQRRDIDENSDLLSIPIDDEGKELKSELTKRWQSLFPVRATRMFIHYSMQSIKTDEEFKMLQDLWRPRIVPILPYITRLLYQLQSYHDPDNWKGLPTVVQSFVKYSTIERFWEAGASNKSKDEFIDEHMKAMQTLRDFADSVGHIIRYTREYTLLVLSAISSLGSVFYLLDESPDLLLNSIAIFKPGSNEISPGVSTHGWKHIMNIAIRPILKGCPKDCLGKFMPAFLPKLFEILDLLLCQKWSSHMNDMDMNPVPTDDDQMTEEILEENLLRQLTTVVVRIVIDCVGQGNANPNSAKSRLNNHQMEMRKIIFNDLNTLAPFLKLLNHLISFKDTKCSFNSILVMKCCLTSVLNQNNTVDEYFTFEVMKNLLLNVLCNSAFKDSFHEALYAFTVIFLTLCKEYPSARAFLFEISNGYNIDELYRNLRSVDEYKTQRALMIDFIDWVKSTSGKEDGNVDHAGDERKRQEKREAILKKANERLIKKNKENGDMLDDPNIEDGAVGNLFDDN”, the protein production was “failed”.
In the case of “MSRAALGIRSSWVGFVAAATTAMASTIAPVAYAQVAHHVPNDGCSAVEVAVVGGTTQANIHDDPHDVYSFGKGTNFAVNMTRRFHNVTAWQLPYYSSAGITASNNDAEQKEFPPYAVSKNRGVDVLDAHLSDQAVKCPDTQFVIAGFSQGADIAGDMAERISRGKTNPALTPERVLGVYLLADPGRSDLPMNPTQGQTTTGKSGPLTDNGAVLIETNLGLPGAGSVGIAGPRAAGAFSNLPGKVRSICSSGDPACAVHPKGLLASVGKWANDQNDFEHVPVESVRTMMLNGSFFISLAPHMNKIRGDLYASDPVALKQHFDDASMHPRLTQPERNTLHLVGAEIAGLMGHLKQGRDQVAVGSSDTGLSSGGPRDRLIALEKIVQQQTGLVELQLAVGLMIVHLSYTGDSREVSTVGAQRADDWIDSDMTQLISGYLNTLSVRAPYVTLGERHTFIQKMGWPIWWIVSSIWGQRNHAARGVWEFFGL”, the protein production is reported as “failed”.
For “VAEVPEEHKSKDGNTTVGYVIFFYTYSTWKGRTVYMEDLYVMPEFRGNGIGKALLGAVAKEAKDQLCSRLQFSVLDWNKPSLDFYMAKGAEDLTAKEGWHFLRFHGMALDNLAQEAP”, the protein production was “failed”.
For “MKQIIIAIGREFGSGGHLVAKKLAEHYNIPLYSKELLDEVAKDGRYSKEVLERFDEKPMNFAFIPVPAGGTTISLEQDIAIRQFNFIRKKANEEKESFVIVGRCAEEILSDNPNMISAFILGDKDTKTKRVMEREGVDEKTALNMMKKMDKMRKVYHNFYCESKWGDSRTYDICIKIGKVDVDTATDMIIKYIDSRDN”, the protein production was “not failed”.
For “MSLEARVLTGAALEARLDEVARLRIAVFRDWPYLYEGSMDYERSYLSTYRTSPGAILVGAFDGDRLVGASTGTPMEDHAEDFAAAFARTGLPLDEIFYCAESVLLPDYRGHGMGHRFFDLREAHARALGRRHSAFCSVIRPEDHPLRPAAARSNEPFWRKRGYAPLPGVVAHYGWTDVGEERETQKPLQFWIRDL”, the protein production was “not failed”.
With “SSGVIAFDEGFRVTTVNQGAQTILQADLRSVIGRPLETVDGMLEFAQVVRQAFAAHAAVGSERLHWQQQFEITPGLDETGGQPVTLLARGTHLRVD” the protein production was “failed”.
In the case of “MLALPTTFAKSPIDNEASIEETTPKWSVNSPQGNFTTADIDVRSGTWMNVDLNPDGKTIIFDLLGDIYTMPASGGEATPLMTDIAWQMQPRFSPDGKYIAFTSDEDGGDNLWIMKADGSEAKAVTTETFRLLNSPAWSPDGNYIVGRKHYTGTRSLGAGEVWMYHKSGGNGVMLTKRPNEQKDLGEPAFSHDGKYVYFSQDATPGKSFHYSKDSEKGIYKIKRLELETGEIKVVVSGKGGAIRPTLSPDGKYLAFISRDDFQSNLYLYNLKNGEQSKVYDGLDRDMQETWAIHGVYPTMAWTPDSEGLVFWSGGKINKLSLDSKKAKVIDFHVKTTKKIQTAVRFPQDLDQKSFDTKMLRDVKVSPNGKLAVYESMGHLYTKSLPKGKPKRLTKQKSQFELNPSFSRDGKKIVYVSWDDKNLGQVRVVSSRGGKGKTITREPGKYVEPSFSPDGKAVVYRKVTGGFITDPTWGLNPGVYAVSVKGGKAKLVTEEGVQPHFGARNDRIYVTRDGETPHISRIDIDGQHDTKLYQGKFASEYRVSPDGNYLAFAERFKVFVTPFVERGDVIDIGPKAENLPVEQLSMRAGEGINWNGKSNELYWSLGADLYQASIKGLFDITAKTTDENDDGSEPETSASTVVNDINVINLSYKQKVDIPSGHVAFVGGKVITMEGEQVIDNGVVLVEGNKIKAVGTKGQVNIPSDATIIDITGKTVMPGLIDAHAHGPQGSNEIIPQQNWKNYAGLALGVTTIHDPSNDTTEFFAASEMQKAGKIVAARLFSTGTILYGATIPGYTSHVDSLDDAKFHVERLKAAGAFSVKSYNQPRRNQRQQFIQAARELEMMVVPEGGSLLQHNLTMVVDGHTTLEHSISTAKIYADIKQLWSQSDMAYTPTMGVAYGGISGENYWYDTTNVWEHPRLSQYVPSEFLDPRSMRRPKAPLHHYNHFNVAKVAKEMQDLGVVVNAGGHGQREGLAMHWEMWMMAQGGMSPLQAIRTATISPAKSLGLDKDLGSLTVGKLADMIVIDGDITQDIRLSDKVTHTMINGRLYNADTMNEIGNYDNKREKFYFENK”, the protein production is reported as “failed”.
In the case of “MTAKAACSDFLHFFRSWVSNPLRVAAIAPSGDSLARIMTSEIAALDGPIIELGPGTGVFTRALLARGVSEADLTLIEYGPEFITSLQARFPTARVLQMDAAHLAHADIFEGEPVGAVVSGLPLLSMSPRKIASILAGAFAYMRPGGAVYQFTYGPRCPVPRPILDRLGLKAVRIGGTVRNLPPASVYRISRRKPLELSRERFSYRSSAADVDDVAAFSNETGG”, the protein production is reported as “failed”.
In the case of “WGLSVERSTYFLAPADRHYLADYARQAEDAWRREGAAGAERFRKELSAKEDTWVALVGPHLESLGSTPLSAEESSHLTFMRKLDWPMSRRLQDELPYVSIEFPGHPEQGRLVIQLPERLLPG”, the protein production is reported as “not failed”.
With “MVKFIHCSDLHLDSPFKSKSHISPKIFEDVQKSAYESFKNIVDIALQQDVDFVIIAGDLFDSENRTLRAEIFLKQQFERLQNEQIFVYVCHGNHDPLSSKISSNWPDNVSVFSNKVETYEAITKSGETIYIHGFSYENRASYENKIDEYPSSQGQKGIHIGVLHGTYSKSSVNERYTEFILEDLNSKLYHYWALGHIHERQQLSDMPVINYSGNIQGRHFNEQGEKGCLLIEGDHLKLKTKFYPTQYIRFEEATIETDKTSKQGLYEVIQNFKEQVREEGKAFYRLTLVINSETLISPQDLLQVEEMITDYEENENQFVYIDELKIQYAQNDESPLVNEFSAELLVDQTVFDKAMSDLYLNPRASKFLDDYGTFDHTALVNRAEEILKAEMRGEQNDN” the protein production was “failed”.
For “DKLYPCQCGKSFTHKSQRDRHMSMHLGLRPYGCGVCGKKFKMKHHLVGHMKIHTGIKPYECNICAKRFMWRDSFHRHVTSCTKSYEAAKAEQNTTEA”, the protein production was “not failed”.
With “MKKILVLGGAHIDRRGMIETETAPGASNPGSWMEEAGGGGFNAARNLSRLGFEVRIIAPRGGDVTGEVVAEAARQAGVEDTPFTFLDRRTPSYTAILERDGNLVIALADMDLYKLFTPRRLKVRAVREAIIASDFLLCDANLPEDTLTALGLIARACEKPLAAIAISPAKAVKLKAALGDIDILFMNEAEARALTGETAENVRDWPNILRKAGLSGGVVTRGASEVVAFNGTEKAILHPPLIREVKDVTGAGDAMASGYLAAIAEGKTIREALRQGAAAAAITVQSSFATSQDLSKDSVEAMLGLVPQAEMLA” the protein production was “not failed”.
For “MNKQQQSMNTNRSAQEMSETSPEYEQKYQQAIDCIENQEYGQAISILDELAGEASRDAKLRYARAVALLSNGEYRRAGTDLAFTVALDRSNLEAYRHLGFVLLTMGKEEAAIKVLEEALRRDPCFVEAWCVLADVHMDLGEHDKALDALDRAHELQPGNAEVHCKLAMYYMSRGDMRGLRAEYEVLREIEPDVAAQIAELLP”, the protein production was “failed”.
For “LQTLCDILRADPADSRTLTELGREIGASDRTLSRLFRSELGMTFPQWRTQLRLHHALVLLADSTPVTAVAHLCGWSSASAFIDAFRRTFGHTPGARPRD”, the protein production was “failed”.
In the case of “MKSRPRLLLVYPATHKLGWVRRFQLPSLSLKQVAAVTPPEWEVVMADEVHEDVPFGEKFDLVGITAMTHQAVRAYEIADRFRAQGVPVVLGGIHPTVLPEEAQAHADAVLIGEAEPVWAKLLDDFLAGRLAPLYRAPIPTDDRLVIPWSRRDILAGRQYLTTQTVQASRGCPYDCPFCTVTPYFGRTFRYRNPDDVLAELRSFEGKLMVFVDDNILGDPVRAKPILEGMAGMNLRWGGQANLRFAEDPELVKLVARSGCIGIFVGIESVTGPHANHAKTGNGSSQIDLVKRVRDAGIVLEASMIFGFDDHDEGIFERTVRFLEECAPSIPTFNVLTPYPGTSLFKQFDREGRLLHKDWSRYDHGQVVFRPKQMTPERLYRGWQEARWEAYRLPAIASRVMKGKGKLVNLAYNFLRRGGIERPDRIVHIREVAEP”, the protein production is reported as “failed”.
In the case of “MSLYDLKPNEKGRIKDIKGDERLSKRLSALGFIEGTEVEVKMMAPLGDPILVNVRGFNIAIRKNDAKNIFLKEAKLEHHHHHH”, the protein production is reported as “not failed”.
